{"source": "paper PMC10673995", "about": "“Discovery of a novel cardiac-specific myosin modulator using artificial intelligence-based virtual screening” (Nature Communications, 2023)", "molecular_target": "myosin S2 tail domain (UniProt P12883)", "sequence (P12883 whole entry, the tested form may be a part)": "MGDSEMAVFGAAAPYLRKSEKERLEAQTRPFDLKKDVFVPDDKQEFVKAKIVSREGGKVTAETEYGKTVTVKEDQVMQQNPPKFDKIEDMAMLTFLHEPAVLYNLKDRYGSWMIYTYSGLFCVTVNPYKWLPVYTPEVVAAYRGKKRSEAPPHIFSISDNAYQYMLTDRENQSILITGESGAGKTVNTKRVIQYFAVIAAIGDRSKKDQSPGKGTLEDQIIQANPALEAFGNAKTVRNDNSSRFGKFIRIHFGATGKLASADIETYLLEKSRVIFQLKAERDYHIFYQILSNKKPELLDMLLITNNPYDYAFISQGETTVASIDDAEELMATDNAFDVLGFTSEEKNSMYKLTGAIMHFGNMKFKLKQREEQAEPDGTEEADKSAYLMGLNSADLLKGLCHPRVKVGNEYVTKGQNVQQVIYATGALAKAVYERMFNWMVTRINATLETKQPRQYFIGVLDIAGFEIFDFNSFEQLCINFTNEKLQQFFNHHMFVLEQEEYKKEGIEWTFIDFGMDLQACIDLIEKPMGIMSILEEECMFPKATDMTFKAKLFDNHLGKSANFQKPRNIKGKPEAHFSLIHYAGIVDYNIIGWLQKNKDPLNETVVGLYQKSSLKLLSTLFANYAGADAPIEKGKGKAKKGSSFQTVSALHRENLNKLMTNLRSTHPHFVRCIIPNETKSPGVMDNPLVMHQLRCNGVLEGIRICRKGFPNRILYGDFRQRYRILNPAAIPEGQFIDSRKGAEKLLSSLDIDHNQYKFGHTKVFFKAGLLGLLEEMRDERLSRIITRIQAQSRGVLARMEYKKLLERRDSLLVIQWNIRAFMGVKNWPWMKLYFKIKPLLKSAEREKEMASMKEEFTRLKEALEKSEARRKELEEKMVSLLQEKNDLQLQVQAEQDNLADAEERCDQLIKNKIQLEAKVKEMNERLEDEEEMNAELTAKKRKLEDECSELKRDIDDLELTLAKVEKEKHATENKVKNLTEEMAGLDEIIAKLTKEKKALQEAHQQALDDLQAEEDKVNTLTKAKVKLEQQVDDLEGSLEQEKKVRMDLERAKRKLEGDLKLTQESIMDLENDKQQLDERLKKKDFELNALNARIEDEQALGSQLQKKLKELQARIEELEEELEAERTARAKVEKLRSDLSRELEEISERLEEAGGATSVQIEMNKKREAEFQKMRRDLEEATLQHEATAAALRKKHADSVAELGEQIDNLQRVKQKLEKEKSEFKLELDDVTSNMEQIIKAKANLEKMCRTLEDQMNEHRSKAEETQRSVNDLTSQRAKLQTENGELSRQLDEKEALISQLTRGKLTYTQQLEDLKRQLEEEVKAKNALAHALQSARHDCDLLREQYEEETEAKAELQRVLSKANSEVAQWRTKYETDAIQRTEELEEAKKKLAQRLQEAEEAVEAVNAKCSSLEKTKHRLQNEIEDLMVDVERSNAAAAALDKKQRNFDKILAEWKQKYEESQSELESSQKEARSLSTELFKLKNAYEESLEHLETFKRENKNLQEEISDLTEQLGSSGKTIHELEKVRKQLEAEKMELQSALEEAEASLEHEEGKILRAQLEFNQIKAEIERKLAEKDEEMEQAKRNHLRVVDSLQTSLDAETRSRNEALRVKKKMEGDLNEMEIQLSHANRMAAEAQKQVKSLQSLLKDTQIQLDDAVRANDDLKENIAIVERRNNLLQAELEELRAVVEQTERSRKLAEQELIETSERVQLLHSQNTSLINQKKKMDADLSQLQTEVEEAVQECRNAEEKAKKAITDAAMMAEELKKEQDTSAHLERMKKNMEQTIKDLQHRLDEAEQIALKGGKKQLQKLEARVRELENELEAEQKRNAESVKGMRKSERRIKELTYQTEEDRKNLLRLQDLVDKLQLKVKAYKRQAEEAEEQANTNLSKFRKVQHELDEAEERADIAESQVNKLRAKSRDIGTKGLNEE", "test": "MST; Monolith NT.115; 100 nmol/L Alexa647-labeled protein fixed, partner titrated (which was labeled is not told); 20 mmol/L Mops pH 7, 1 mmol/L MgCl2, 50 mmol/L KCl, 1 mmol/L DTT, 0.05% Tween-20; various nucleotides, with and without F10", "data": [{"substance": "bovine β-cardiac myosin S1 (from UniProt Q9BE39 1-1935; P85100 1-199) (domain or fragment)", "values": [{"measurement": "Kd", "value": 15, "unit": "µM"}]}]}
